In assay [1] the target is Cpe0147^439-563 truncated protein domain (Clostridium perfringens). Description: SDS-PAGE, ester bond ligation in the presence of calcium.
Assay [2] shares this target. Description: SDS-PAGE, ester bond ligation in the presence of glycerol.

Cpe0147^565-587 synthetic peptide: the percent of protein converted (ester bond formed) in assay [1] was 40%; in assay [2], 70%.

For the origin of these results see patent US20190352343A1 (AUCKLAND UNISERVICES, published 2019).
